In patent US20250018005A1 one finds EC50 data, which are given here for 1 substance.

In assay [1] the target is gp120, a protein in the HIV envelope (HIV). Description: competition ELISA, Q-GRFT binding to gp120 in the presence of α-mannan at 0.005 (printed g/mL; the legend of FIG. 3 prints µg/mL).
Assay [2] has the same target. The experiment in a line: competition ELISA, Q-GRFT binding to gp120, PBS control (no α-mannan). A general note: In an ELISA, binding on a coated surface is turned into a signal by an enzyme label.

Take “Q-Griffithsin (Q-GRFT), recombinant oxidation-resistant variant of griffithsin (M78Q) (from UniProt P84801 1-121)”: the EC50 (in general, the concentration that produces a half-maximal response) in assay [1] amounted to 79.3 µg/mL; in assay [2], 72.5 µg/mL.
